Results reported in paper PMC3429342.
One block for each substance: values may come before it.

Key:
Experiment in all cases: AUC
[1] = biological target: Dscam1 3C.31.8 fragment containing the N-terminal 8 Ig domains (Drosophila melanogaster)
[2] = biological target: Dscam1 4C.31.8 fragment containing the N-terminal 8 Ig domains (Drosophila melanogaster)
[3] = biological target: Dscam1 10C.27.25 fragment containing the N-terminal 8 Ig domains (Drosophila melanogaster)
[4] = biological target: Dscam1 11C.27.25 fragment containing the N-terminal 8 Ig domains (Drosophila melanogaster)
[5] = biological target: Dscam1^3.31.8 fragment containing the N-terminal 8 Ig domains (Drosophila melanogaster)
[6] = biological target: Dscam1^10.27.25 fragment containing the N-terminal 8 Ig domains (Drosophila melanogaster)

Kd [1]: > 500 µM | Kd [2]: 0.99 µM
Substance: Dscam1 3C.31.8 fragment containing the N-terminal 8 Ig domains (domain or fragment)

Kd [2]: > 500 µM
Substance: Dscam1 4C.31.8 fragment containing the N-terminal 8 Ig domains (domain or fragment)

Kd [3]: > 500 µM | Kd [4]: 4.6 µM
Substance: Dscam1 10C.27.25 fragment containing the N-terminal 8 Ig domains (domain or fragment)

Kd [4]: > 500 µM
Substance: Dscam1 11C.27.25 fragment containing the N-terminal 8 Ig domains (domain or fragment)

Kd [5]: 2.12 µM | stoichiometry N [5]: 2
Substance: Dscam1^3.31.8 fragment containing the N-terminal 8 Ig domains (domain or fragment)

Kd [6]: 1 µM | stoichiometry N [6]: 2
Substance: Dscam1^10.27.25 fragment containing the N-terminal 8 Ig domains (domain or fragment)
